In patent publication US20250011363A1, “OPTIMIZED SHORTENED PEPTIDE THAT BINDS TO ACETYLCHOLINE RECEPTOR, AND USE THEREOF” (SKINMED CO., LTD., priority 2021, published 2025):

B1: 6mer-2-1112 (peptide)
peptide: RASWRK
B2: 6mer-2-1122 (peptide)
peptide: RCNFKK
B3: 6mer-2-1108 (peptide)
peptide: KKKVRR
B4: 6mer-2-1102 (peptide)
peptide: KHKGKR
B5: 6mer-2-1116 (peptide)
peptide: KMEVKK
B6: 6mer-2-1119 (peptide)
peptide: KCTVRK
B7: 6mer-2-1104 (peptide)
peptide: RYTKKR
B8: 6mer-2-1125 (peptide)
peptide: RDAFKK
B9: 6mer-2-1111 (peptide)
peptide: REDEKK
B10: 6mer-2-1124 (peptide)
peptide: RKTWRK
B11: 6mer-2-1121 (peptide)
peptide: KPSKRR
B12: 6mer-2-1127 (peptide)
peptide: KAAEKK
B13: 6mer-2-1115 (peptide)
peptide: KYSPRK
B14: 6mer-2-1113 (peptide)
peptide: KPNFRK
B15: 6mer-2-1120 (peptide)
peptide: RDMMKK
B16: 6mer-2-1114 (peptide)
peptide: RKKFRK
B17: 6mer-2-1106 (peptide)
peptide: KDKVKR
B18: 6mer-2-1105 (peptide)
peptide: RNNAKK
B19: 6mer-2-1117 (peptide)
peptide: RMHVKR
B20: 6mer-2-1100 (peptide)
peptide: RTAPKK
B21: 6mer-2-1103 (peptide)
peptide: RDAWRK
B22: 6mer-2-1123 (peptide)
peptide: RITARR
B23: 6mer-2-1101 (peptide)
peptide: RTKMRR
B24: 6mer-2-1110 (peptide)
peptide: RMTKKK
B25: 6mer-2-1118 (peptide)
peptide: RFDGRR
B26: 6mer-2-1107 (peptide)
peptide: RAHERK
B27: 6mer-2-1109 (peptide)
peptide: KEDMRK
B28: 6mer-2-1126 (peptide)
peptide: RHEVRR
B29: 6mer-2-1099 (peptide)
peptide: REDWRR
B30: 5mer-490 (peptide)
peptide: RWLLK
B31: 5mer-494 (peptide)
peptide: RGFCK
B32: 5mer-192 (peptide)
peptide: KSFRK
B33: 5mer-198 (peptide)
peptide: KLISR
B34: 5mer-179 (peptide)
peptide: RLYTK
B35: 5mer-183 (peptide)
peptide: KRVYR
B36: 5mer-187 (peptide)
peptide: RWVCR
B37: 5mer-492 (peptide)
peptide: RVVLR
B38: 5mer-483 (peptide)
peptide: RSISR
B39: 5mer-186 (peptide)
peptide: KRLQR
B40: 5mer-486 (peptide)
peptide: RWLQR
B41: 5mer-194 (peptide)
peptide: KWQSK
B42: 5mer-189 (peptide)
peptide: RLLQK
B43: 5mer-174 (peptide)
peptide: KGRQR
B44: 5mer-480 (peptide)
peptide: RWYLR
B45: 5mer-197 (peptide)
peptide: RSRQK
B46: 5mer-487 (peptide)
peptide: RLVTK
B47: 5mer-477 (peptide)
peptide: KGYSR
B48: 5mer-190 (peptide)
peptide: RWRSR
B49: 5mer-176 (peptide)
peptide: RVLYK
B50: 5mer-181 (peptide)
peptide: RSLLK
B51: 5mer-497 (peptide)
peptide: KRRCR
B52: 5mer-175 (peptide)
peptide: RWQLK
B53: 5mer-491 (peptide)
peptide: KQIRR
B54: 5mer-177 (peptide)
peptide: RWVRK
B55: 5mer-484 (peptide)
peptide: RSFQK
B56: 5mer-195 (peptide)
peptide: KVVSR
B57: 5mer-178 (peptide)
peptide: RRVLK
B58: 5mer-488 (peptide)
peptide: KVRSR
B59: 5mer-188 (peptide)
peptide: KWFSK
B60: 5mer-485 (peptide)
peptide: KRQRK
B61: 5mer-489 (peptide)
peptide: KSYSR
B62: 5mer-193 (peptide)
peptide: RVIRK
B63: 5mer-182 (peptide)
peptide: RVLSK
B64: 5mer-495 (peptide)
peptide: KVVTK
B65: 5mer-481 (peptide)
peptide: KSYCK
B66: 5mer-482 (peptide)
peptide: KQFCK
B67: 5mer-476 (peptide)
peptide: RSICK
B68: 5mer-191 (peptide)
peptide: RVRCR
B69: 5mer-185 (peptide)
peptide: RRYRR
B70: 5mer-479 (peptide)
peptide: RQYYK
B71: 5mer-478 (peptide)
peptide: RVQTK
B72: 5mer-184 (peptide)
peptide: KLQCR
B73: 5mer-493 (peptide)
peptide: KSIRR
B74: 5mer-196 (peptide)
peptide: RSYYR
B75: 5mer-180 (peptide)
peptide: KQRYR
B76: 5mer-474 (peptide)
peptide: RQFLR
B77: 5mer-498 (peptide)
peptide: KLISK
B78: 5mer-475 (peptide)
peptide: RRFCK
B79: 5mer-496 (peptide)
peptide: KGIQK

biological target: acetylcholine receptor; test: SPR, peptide at 10 uM

Binder	Binding affinity [RU]
B1	26
B2	22
B3	36
B4	32
B5	31
B6	39
B7	38
B8	30
B9	23
B10	39
B11	21
B12	42
B13	39
B14	43
B15	28
B16	34
B17	28
B18	28
B19	21
B20	24
B21	42
B22	36
B23	38
B24	37
B25	42
B26	29
B27	26
B28	23
B29	21

biological target: acetylcholine receptor; test: SPR, AchR immobilized on chip, peptide 10 uM

Binder	Binding affinity (RU)
B30	60
B31	54
B32	75
B33	74
B34	55
B35	64
B36	74
B37	80
B38	51
B39	64
B40	53
B41	84
B42	65
B43	59
B44	75
B45	68
B46	62
B47	58
B48	84
B49	52
B50	72
B51	76
B52	63
B53	81
B54	77

Binder	Binding affinity (RU)
B55	51
B56	82
B57	87
B58	58
B59	82
B60	58
B61	63
B62	80
B63	70
B64	52
B65	78
B66	75
B67	70
B68	75
B69	86
B70	70
B71	75
B72	68
B73	57
B74	69
B75	74
B76	80
B77	53
B78	56
B79	81
